Test results published in patent US20180346600A1 (AJOU UNIVERSITY INDUSTRY ACADEMIC COOPERATION FOUNDATION, published 2018).
Positions count from the first letter of the chain named. Names may count otherwise. Blank lines part the entries; values can stand above or below the binder they belong to.

Tests used:
[1] = biological target: T1, displayed FcCH3A, W-VT (K409W), on yeast cell surface (human, UniProt P0DOX5 227-449 = IgG part); assay: flow cytometry histogram (PE, FL2-H) of diploid yeast: Flag-tagged secreted FcCH3B held on displayed FcCH3A, anti-Flag mouse mAb and PE anti-mouse antibody
T1 construct: EU 226 and 229 counted from the entry's start at EU 225; also called W-VT CH3A chain (yeast)
T1 Fc: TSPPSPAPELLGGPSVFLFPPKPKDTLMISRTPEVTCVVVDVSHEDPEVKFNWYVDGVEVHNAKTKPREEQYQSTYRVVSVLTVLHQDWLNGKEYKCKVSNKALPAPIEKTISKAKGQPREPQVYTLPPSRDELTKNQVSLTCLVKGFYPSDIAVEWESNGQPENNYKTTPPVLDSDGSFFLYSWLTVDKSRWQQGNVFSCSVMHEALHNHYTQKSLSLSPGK
Method: Specifically, the diploid in which the expression of the heterodimeric heavy chain constant region was induced was reacted with an antibody recognizing flag-tag included in the secreted FcCH3B (anti-Flag mouse mAb, F3165) (Sigma-Aldrich) and an antibody conjugated with PE (phycoerythrin conjugated anti-mouse mAb, sc-3738) (Santa Cruz biotechnology), and a signal of PE was analyzed by flow cytometry.

[2] = biological target: T2, displayed FcCH3A, EW-RVT (K360E/K409W), on yeast cell surface (human, UniProt P0DOX5 227-449 = IgG part); assay: flow cytometry of diploid yeast: MFI of Flag-tagged secreted FcCH3B held on displayed FcCH3A (anti-Flag mouse mAb and PE anti-mouse antibody), normalised to EW-RVT = 100 %
T2 construct: also called EW-RVT CH3A chain (yeast)
T2 Fc: T1 Fc with K136E

[3] = biological target: T3, displayed FcCH3A, A107 (K370E/K409W), on yeast cell surface (human, UniProt P0DOX5 227-449 = IgG part); assay: as above
T3 construct: also called A107 CH3A chain (yeast)
T3 Fc: T1 Fc with K146E

[4] = biological target: T4, displayed FcCH3A, B121 (D399E/K409W), on yeast cell surface (human, UniProt P0DOX5 227-449 = IgG part); assay: as above
T4 construct: also called B121 CH3A chain (yeast)
T4 Fc: T1 Fc with D175E

[5] = biological target: T5, displayed FcCH3A, A146 (K370D/K409W), on yeast cell surface (human, UniProt P0DOX5 227-449 = IgG part); assay: as above
T5 construct: also called A146 CH3A chain (yeast)
T5 Fc: T1 Fc with K146D

[6] = biological target: T6, displayed FcCH3A, A108 (K370E/K409W), on yeast cell surface (human, UniProt P0DOX5 227-449 = IgG part); assay: as above
T6 construct: also called A108 CH3A chain (yeast)
T6 Fc: T1 Fc with K146E

[7] = biological target: T7, displayed FcCH3A, A109 (K370M/K409W), on yeast cell surface (human, UniProt P0DOX5 227-449 = IgG part); assay: as above
T7 construct: also called A109 CH3A chain (yeast)
T7 Fc: T1 Fc with K146M

[8] = biological target: the molecule itself; assay: HEK293-F co-expression, Protein A purification, non-reducing SDS-PAGE densitometry
From the text: The pcDNA3.1 (+)-scFv-FcCH3A and pcDNA3.1 (+)-FcCH3B animal cell expression vectors that were constructed using the HEK293-F system (Invitrogen) were used to produce antibodies by transient transfection, and the heterodimer formation ability was compared. Specifically, a mixture of an expression vector and polyethylenimine (PEI) (Polyscience) was transfected into HEK293-F cells (Invitrogen) that were suspension-grown on a serum-free FreeStyle 293 expression medium (Invitrogen) in a shaking flask (Corning). When transfecting 30 ml of the mixture in the shaking flask, HEK293-F cells were seeded at a density of 1.0×10⁶ cell/ml in 30 ml of medium and cultured at 125 rpm and 8% CO₂. […] Then, the reacted mixed medium was added to 30 ml of the previously seeded cells and cultured at 125 rpm and 8% CO₂ for 6 days. The cell culture supernatant collected with reference to the standard protocol was applied to Protein A Sepharose column (GE healthcare), washed with PBS (pH 7.4). The antibody was eluted at pH 3.0 with 0.1 M glycine buffer and immediately neutralized with 1 M Tris buffer. The eluted antibody fraction was concentrated using an Amicon Ultra (MILLIPORE) centrifugal concentrator after the buffer was exchanged with PBS (pH 7.4) using a Dextran Desalting Column (Thermo Scientific Pierce). The purified antibody was quantified by BCA technique.
The W-VT and EW-RVT mutants were used as control groups.

[9] = biological target: the molecule itself; assay: as above; remark: listed apart in the source
From the text: The CH3 domain mutant pair of the individual clones selected from the LibA2 and LibB2 libraries in Example 8 above was cloned into an animal cell expression vector so that the CH3A mutant was expressed into the scFv-FcCH3A format and the CH3B mutant was expressed into the FcCH3B format.
The EW-RVT and A107_{w/oW-VT}, B168_{w/oW-VT} mutant pairs were used as control groups.

binding result [1]: binds
B1: secreted FcCH3B, W-VT (D399V/F405T), from yeast (other)
chain: T1 Fc with D175V, F181T, W185K
notes: also called W-VT CH3B chain (yeast); not shown: flag-tag

binding result [2]: binds
B2: secreted FcCH3B, EW-RVT (Q347R/D399V/F405T), from yeast (other)
chain: T1 Fc with Q123R, D175V, F181T, W185K
notes: also called EW-RVT CH3B chain (yeast); not shown: flag-tag

binding result [3]: binds
B3: secreted FcCH3B, A107 (E357N/D399V/F405T), from yeast (other)
chain: T1 Fc with E133N, D175V, F181T, W185K
notes: also called A107 CH3B chain (yeast); not shown: flag-tag

binding result [4]: binds
B4: secreted FcCH3B, B121 (K392E/D399V/F405T), from yeast (other)
chain: T1 Fc with K168E, D175V, F181T, W185K
notes: also called B121 CH3B chain (yeast); not shown: flag-tag

binding result [5]: binds
B5: secreted FcCH3B, A146 (E357M/D399V/F405T), from yeast (other)
chain: T1 Fc with E133M, D175V, F181T, W185K
notes: also called A146 CH3B chain (yeast); not shown: flag-tag

binding result [6]: binds
B6: secreted FcCH3B, A108 (E357I/S364T/D399V/F405T), from yeast (other)
chain: T1 Fc with E133I, S140T, D175V, F181T, W185K
notes: also called A108 CH3B chain (yeast); not shown: flag-tag

binding result [7]: binds
B7: secreted FcCH3B, A109 (E357M/S364W/D399V/F405T), from yeast (other)
chain: T1 Fc with E133M, S140W, D175V, F181T, W185K
notes: also called A109 CH3B chain (yeast); not shown: flag-tag

B8: FcCH3B, B135 (K392S/K409L/D399V/F405T) (other)
chain: T1 Fc with S2C, S5C, Q73N, K168S, D175V, F181T, W185L
notes: also called B135 CH3B chain
(Fc)2 (homodimer) (%) [8]: 27.9%

B9: FcCH3B, B240 (D399G/K392G/K409M) (other)
chain: T1 Fc with S2C, S5C, Q73N, K168G, D175G, W185M
notes: also called B240 CH3B chain
(FC)2 (homodimer)(%) [9]: 11.9%

B10: FcCH3B, A108 (E357I/S364T/D399V/F405T) (other)
chain: T1 Fc with S2C, S5C, Q73N, E133I, S140T, D175V, F181T, W185K
notes: also called A108 CH3B chain
(Fc)2 (homodimer) (%) [8]: 13%

B11: FcCH3B, B215 (D399W/K392G/K409M) (other)
chain: T1 Fc with S2C, S5C, Q73N, K168G, D175W, W185M
notes: also called B215 CH3B chain
(FC)2 (homodimer)(%) [9]: 20%

B12: FcCH3B, B121 (K392E/D399V/F405T) (other)
chain: T1 Fc with S2C, S5C, Q73N, K168E, D175V, F181T, W185K
notes: also called B121 CH3B chain
(Fc)2 (homodimer) (%) [8]: 25.2%

B13: FcCH3B, A109 (E357M/S364W/D399V/F405T) (other)
chain: T1 Fc with S2C, S5C, Q73N, E133M, S140W, D175V, F181T, W185K
notes: also called A109 CH3B chain
(Fc)2 (homodimer) (%) [8]: 5.8%

B14: FcCH3B, B235 (D399C/K392G/K409M) (other)
chain: T1 Fc with S2C, S5C, Q73N, K168G, D175C, W185M
notes: also called B235 CH3B chain
(FC)2 (homodimer)(%) [9]: 6.9%

B15: FcCH3B, A146 (E357M/D399V/F405T) (other)
chain: T1 Fc with S2C, S5C, Q73N, E133M, D175V, F181T, W185K
notes: also called A146 CH3B chain
(Fc)2 (homodimer) (%) [8]: 14.6%

B16: FcCH3B, A107 (E357N/D399V/F405T) (other)
chain: T1 Fc with S2C, S5C, Q73N, E133N, D175V, F181T, W185K
notes: also called A107 CH3B chain
(Fc)2 (homodimer) (%) [8]: 2.4%

B17: FcCH3B, B168 (K392G/K409M/D399V/F405T) (other)
chain: T1 Fc with S2C, S5C, Q73N, K168G, D175V, F181T, W185M
notes: also called B168 CH3B chain
(Fc)2 (homodimer) (%) [8]: 21.1%

B18: FcCH3B, B256 (D399V/K392G/K409M) (other)
chain: T1 Fc with S2C, S5C, Q73N, K168G, D175V, W185M
notes: also called B256 CH3B chain
(FC)2 (homodimer)(%) [9]: 16.7%

B19: FcCH3B, B239 (D399S/K392G/K409M) (other)
chain: T1 Fc with S2C, S5C, Q73N, K168G, D175S, W185M
notes: also called B239 CH3B chain
(FC)2 (homodimer)(%) [9]: 20.3%

B20: FcCH3B, B212 (D399G/K392G/K409M) (other)
chain: T1 Fc with S2C, S5C, Q73N, K168G, D175G, W185M
notes: also called B212 CH3B chain
(FC)2 (homodimer)(%) [9]: 33.8%

B21: FcCH3B, EW-RVT (Q347R/D399V/F405T) (other)
chain: T1 Fc with S2C, S5C, Q73N, Q123R, D175V, F181T, W185K
notes: also called EW-RVT CH3B chain
(FC)2 (homodimer)(%) [9]: 1.6%
(Fc)2 (homodimer) (%) [8]: 1.6%
